# Measurements from the Immune Epitope Database (IEDB).
# Columns and labels:
# HLA-A*02:01 [1] = test: IEDB peptide-MHC binding, purified MHC/competitive/fluorescence; filed as Kd, often an IC50 or EC50 that approximates it; ≥ and ≤ were set here for values at or beyond the usual limits of such assays; details: source organism: Variola virus
# HLA-B*48:01 = test: IEDB peptide-MHC binding, purified MHC/direct/fluorescence; filed as Kd, often an IC50 or EC50 that approximates it; ≥ and ≤ were set here for values at or beyond the usual limits of such assays
# HLA-A*32:01 = test: IEDB peptide-MHC binding, purified MHC/competitive/radioactivity; filed as Kd, often an IC50 or EC50 that approximates it; ≥ and ≤ were set here for values at or beyond the usual limits of such assays
# HLA-A*01:01 [2] = test: as above
# HLA-A*26:01 = test: as above
# HLA-A*29:02 = test: as above
# HLA-A*30:01 = test: as above
# HLA-A*30:02 = test: as above
# HLA-B*40:01 [3] = test: as above; details: source organism: Dengue virus 2 Jamaica/1409/1983
# HLA-A*01:01 [4] = test: IEDB peptide-MHC binding, purified MHC/direct/fluorescence; filed as Kd, often an IC50 or EC50 that approximates it; ≥ and ≤ were set here for values at or beyond the usual limits of such assays; details: source organism: Yellow fever virus
# HLA-A*02:01 [5] = test: as above; details: source organism: Yellow fever virus
# HLA-A*03:01 = test: as above; details: source organism: Yellow fever virus
# HLA-A*69:01 = test: as above; details: source organism: Yellow fever virus
# HLA-B*07:02 = test: as above; details: source organism: Yellow fever virus
# HLA-B*15:01 = test: as above; details: source organism: Yellow fever virus
# HLA-B*40:01 [6] = test: as above; details: source organism: Yellow fever virus
# HLA-B*44:02 = test: as above; details: source organism: Yellow fever virus
# HLA-B*46:01 = test: as above; details: source organism: Yellow fever virus
# HLA-B*57:01 = test: as above; details: source organism: Yellow fever virus
# HLA-B*58:01 = test: as above; details: source organism: Yellow fever virus
# HLA-B*27:05 = test: as above; details: source organism: Orthohantavirus hantanense
# [7] = source organism: Vaccinia virus Copenhagen
# [8] = source organism: Mammarenavirus guanaritoense
# [9] = source organism: Mammarenavirus brazilense
sequence,measurement,setting,value
AMLNGLIYV,Kd,HLA-A*02:01 [1],0.0013 µM
AQAELDAAF,Kd,HLA-B*48:01; source organism: Salmonella enterica subsp. enterica serovar Paratyphi A str. ATCC 9150,0.696 µM
AQDFQSLTI,Kd,HLA-A*32:01; [7],0.0676 µM
AQVTCLKFL,Kd,HLA-B*48:01; source organism: Cryptosporidium parvum Iowa II,1.67 µM
CSKILDLCY,Kd,HLA-A*01:01 [2]; [8],0.0531 µM
same,Kd,HLA-A*26:01; [8],≥ 54.6 µM
same,Kd,HLA-A*29:02; [8],3.62 µM
same,Kd,HLA-A*30:01; [8],14.9 µM
same,Kd,HLA-A*30:02; [8],0.664 µM
same,Kd,HLA-A*32:01; [8],≥ 50.9 µM
DDVARAWSL,Kd,HLA-B*48:01; source organism: Mycobacterium tuberculosis str. Haarlem,≥ 20 µM
EEEEQTLTIL,Kd,HLA-B*40:01 [3],0.0104 µM
ELLNTPYCNY,Kd,HLA-A*01:01 [2]; [9],12.3 µM
same,Kd,HLA-A*26:01; [9],0.275 µM
same,Kd,HLA-A*29:02; [9],0.837 µM
same,Kd,HLA-A*30:01; [9],≥ 70.4 µM
same,Kd,HLA-A*30:02; [9],0.206 µM
same,Kd,HLA-A*32:01; [9],≥ 39.9 µM
ERWFVRNPF,Kd,HLA-A*01:01 [4],≥ 20 µM
same,Kd,HLA-A*02:01 [5],≥ 20 µM
same,Kd,HLA-A*03:01,≥ 20 µM
same,Kd,HLA-A*69:01,≥ 20 µM
same,Kd,HLA-B*07:02,≥ 20 µM
same,Kd,HLA-B*15:01,≥ 20 µM
same,Kd,HLA-B*40:01 [6],≥ 20 µM
same,Kd,HLA-B*44:02,≥ 20 µM
same,Kd,HLA-B*46:01,≥ 20 µM
same,Kd,HLA-B*48:01; source organism: Yellow fever virus,≥ 20 µM
same,Kd,HLA-B*57:01,≥ 20 µM
same,Kd,HLA-B*58:01,≥ 20 µM
GSAKLQWFVE,Kd,HLA-A*32:01; source organism: Dengue virus 3 Martinique/1243/1999,≥ 69.9 µM
IRWYISLSF,Kd,HLA-A*32:01; [7],1.17 µM
ITANPIVTD,Kd,HLA-A*32:01; source organism: Dengue virus 1 Brazil/97-11/1997,2.42 µM
KRIAPMLYK,Kd,HLA-B*27:05,0.0407 µM
same,Kd,HLA-B*48:01; source organism: Orthohantavirus hantanense,≥ 20 µM
KTIYLLSLF,Kd,HLA-A*32:01; source organism: Vaccinia virus WR,0.0103 µM
